Test results reported in paper PMC11079029, “Intramolecular autoinhibition regulates the selectivity of PRPF40A tandem WW domains for proline-rich motifs” (Nature Communications, 2024).
Read-outs that look alike come from different tables or passages of the source.

Molecular target: T1, PRPF40A WW12 (tandem WW domains, residues 141–236) (Homo sapiens, UniProt O75400)
T1 construct: WW12 141–236, WW12long 141–248, and N-ext-WW12 56–236; 6xHis-TEV site (N, cleaved yes); made in house; host or cells: Escherichia coli BL21(DE3)
T1 sequence (O75400 141-236): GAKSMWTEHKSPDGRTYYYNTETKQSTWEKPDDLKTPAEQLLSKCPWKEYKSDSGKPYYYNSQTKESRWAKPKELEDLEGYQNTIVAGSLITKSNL
Assay: ITC of PRPF40A WW12 with GB1-tagged proline-rich peptides and constructs
Type: binding
Conditions: for DH: ITC binding enthalpy, as E4; for Kd: ITC as E4, read-out: Kd (mM), Individual values
Source text: PRPF40A isoform 1 sequences (N-ter 1–310, WW12short 141–223, WW12 141–236, WW12long 141–248, and N-ext-WW12 56–236) were amplified from a purchased DNA fragment (IDT) and cloned using NcoI and KpnI restriction sites into a pETM11 vector encoding 6xHis and TEV cleavage site as a N-terminal tag. SF1 (Pro A 410–468, Pro B 468–539, Pro C 539–594, Pro D 594–639, Pro BC 468–594, Pro CD 539–639, Pro BCD 468–639 and Pro ABCD 410–639) and SF3A1 (Middle Pro 364–413 and C-ter Pro 552–683) constructs were prepared in a similar manner using a pET24 vector with a 6xHis, GB1 and TEV cleavage site as N-terminal fusion cassette. 16-mer SF1 constructs (Table 1) and polyproline peptides (P6, P8, P10, P13, P16, P19, P22, P25, and P29) were cloned in the same pET24 vector with GB1 tag by direct ligation of purchased oligonucleotides (Eurofins). All peptide sequences contained N and C-terminal common residues to avoid boundary effects on binding: TEVsite-GAMSGS-peptide-SGSN. Mutants of PRPF40A WW12 and N-ext-WW12 constructs were prepared by site-directed mutagenesis. The truncated version of PRPF40A WW12 (141-217) was a gift from Dr. María Macías (IRB, Spain). All used oligonucleotides were purchased from Eurofins Genomics and are shown in Supplementary Table 6.
Resuspended cell pellets in 20 mM Tris pH 8.0, 500 mM NaCl, 10 mM imidazole, 0.5 mM TCEP, and protease inhibitors mix (SERVA) were lysed by cell disruption in a French press. Clear lysates, after centrifugation (at 18,000 g) and filtering, were loaded into Ni-NTA resin. The resin was then washed with 20 mM imidazole containing buffer, and the desired protein was eluted with 500 mM imidazole. PRPF40A constructs were then subjected to TEV protease treatment (homemade at a final concentration of ≈50 μg/ml), dialyzed overnight at 4 °C against an imidazole-free buffer, and then loaded again to Ni-NTA resin; desired digested proteins were obtained in the flow-through and wash fractions while uncleaved protein, TEV protease, and impurities remained bound to the resin. Cleaved PRPF40A proteins and GB1-tagged SF1, SF3A1, and polyproline constructs were further purified by size-exclusion chromatography on a HiLoad 16/60 Superdex 75 column (GE Healthcare) equilibrated with 20 mM sodium phosphate, pH 6.5, 100 mM NaCl and 1 mM DTT buffer. For the purification of PRPF40A WW12 in complex with SF1 peptide, cell pellets of recombinant expression for both proteins were mixed and processed together following the Ni-NTA—TEV digestion—reverse Ni-NTA—SEC-75 protocol; where the complex remained bound in a 1:1 stoichiometry throughout the whole purification (corroborated by NMR). Molecular weight of each sample was confirmed by mass spectrometry, purity was checked by PAGE-SDS, and protein concentrations were determined from the aromatic contribution to the UV absorbance spectra at 280 nm.
Experiments were conducted on a MicroCAl PEAQ-ITC (Malvern Instruments, UK) at 25 °C in 20 mM sodium phosphate pH 6.5 and 100 mM NaCl. PRPF40A was titrated into N-terminal GB1 tagged SF1 or polyproline constructs and vice versa with similar results. Protein concentrations in the cell were around 20–40 μM, while in the syringe ranged between 200 and 500 μM. Experiments were performed at least in duplicate with injections of 1.5 μL (0.4 μL for first point) separated by 150 s delays to recover thermal power baseline and continuous stirring in the cell (750 rpm) for correct mixing. The reference cell was filled with water in all experiments. Data were processed by removing the blank experiment (using digested GB1 fusion protein) and adjusted to one-site binding model with Malvern PEAQ-ITC Analysis software (Malvern Instruments, UK).

[1] = source data of Fig. 4C,D, individual value 1
[2] = source data of Fig. 4C,D, individual value 2
[3] = source data of Fig. 4C, individual value 3

B1: SF1 Pro CD: GB1-tagged SF1 construct, residues 539–639 (protein)
chain: GSIPPWQQQQAAAAASPGAPQMQGNPTMVPLPPGVQPPLPPGAPPPPPPPPPGSAGMMYAPPPPPPPPMDPSNFVTMMGMGVAGMPPFGMPPAPPPPPPQN
modifications: left off: His6, N-terminal, state not stated | GB1, N-terminal, kept
DH: -46.2 ± 3.11 kcal/mol | Kd [1]: 0.00283 mM | Kd [2]: 0.00432 mM | Kd [3]: 0.00426 mM

B2: SF1 Pro BC: GB1-tagged SF1 construct, residues 468–594 (protein)
chain: GMMPPPPMGMMPPPPPPPSGQPPPPPSGPLPPWQQQQQQPPPPPPPSSSMASSTPLPWQQNTTTTTTSAGTGSIPPWQQQQAAAAASPGAPQMQGNPTMVPLPPGVQPPLPPGAPPPPPPPPPGSAG
modifications: left off: His6, N-terminal, state not stated | GB1, N-terminal, kept
DH: -28.99 ± 1.65 kcal/mol | Kd [1]: 0.00363 mM | Kd [2]: 0.00776 mM | Kd [3]: 0.00911 mM

B3: SF1 Pro BCD: GB1-tagged SF1 construct, residues 468–639 (protein)
chain: GMMPPPPMGMMPPPPPPPSGQPPPPPSGPLPPWQQQQQQPPPPPPPSSSMASSTPLPWQQNTTTTTTSAGTGSIPPWQQQQAAAAASPGAPQMQGNPTMVPLPPGVQPPLPPGAPPPPPPPPPGSAGMMYAPPPPPPPPMDPSNFVTMMGMGVAGMPPFGMPPAPPPPPPQN
modifications: left off: His6, N-terminal, state not stated | GB1, N-terminal, kept
DH: -65.49 ± 8.6 kcal/mol | Kd [1]: 0.00293 mM | Kd [2]: 0.00436 mM

B4: SF1 Pro B: GB1-tagged SF1 construct, residues 468–539 (protein)
chain: GMMPPPPMGMMPPPPPPPSGQPPPPPSGPLPPWQQQQQQPPPPPPPSSSMASSTPLPWQQNTTTTTTSAGTG
modifications: left off: His6, N-terminal, state not stated | GB1, N-terminal, kept
DH: -17.3 ± 3.27 kcal/mol

B5: SF3A1 C-ter Pro: GB1-tagged SF3A1 construct, residues 552–683 (protein)
chain: EIPQQPPPPSSATNIPSSAPPITSVPRPPTMPPPVRTTVVSAVPVMPRPPMASVVRLPPGSVIAPMPPIIHAPRINVVPMPPSAPPIMAPRPPPMIVPTAFVPAPPVAPVPAPAPMPPVHPPPPMEDEPTSK
modifications: left off: His6, N-terminal, state not stated | GB1, N-terminal, kept
DH: -68.83 ± 18.8 kcal/mol | Kd [1]: 0.0238 mM | Kd [2]: 0.0148 mM

B6: SF1 Pro ABCD: GB1-tagged SF1 construct, residues 410–639 (protein)
chain: GHPMQHNPNGPPPPWMQPPPPPMNQGPHPPGHHGPPPMDQYLGSTPVGSGVYRLHQGKGMMPPPPMGMMPPPPPPPSGQPPPPPSGPLPPWQQQQQQPPPPPPPSSSMASSTPLPWQQNTTTTTTSAGTGSIPPWQQQQAAAAASPGAPQMQGNPTMVPLPPGVQPPLPPGAPPPPPPPPPGSAGMMYAPPPPPPPPMDPSNFVTMMGMGVAGMPPFGMPPAPPPPPPQN
modifications: left off: His6, N-terminal, state not stated | GB1, N-terminal, kept
DH: -67.04 ± 9.68 kcal/mol | Kd [1]: 0.00541 mM | Kd [2]: 0.0044 mM
